{"source": "ChEMBL document CHEMBL1141065", "about": "“Inhibition of mandelate racemase by the substrate-intermediate-product analogue 1,1-diphenyl-1-hydroxymethylphosphonate” (Bioorg Med Chem Lett, 2005)", "conditions_in_all_cases": "Pseudomonas putida", "key": {"[1]": {"substrate": "O=C([O-])[C@H]([O-])c1ccccc1.[Mg+2]", "description": "Michaelis-Menten constant of mandelate racemase was determined at pH 8.7"}, "[2]": {"substrate": "O=C([O-])[C@H]([O-])c1ccccc1.[Mg+2]", "remark": "listed apart in the source", "description": "Michaelis-Menten constant of mandelate racemase was determined at pH 7.5"}, "[3]": {"substrate": "O=C([O-])[C@H]([O-])c1ccccc1.[Mg+2]", "remark": "listed apart in the source", "description": "Michaelis-Menten constant of mandelate racemase was determined at pH 6.3"}}}
{"protein": "Mandelate racemase (Pseudomonas putida), P11444 (protein) MSEVLITGLRTRAVNVPLAYPVHTAVGTVGTAPLVLIDLATSAGVVGHSYLFAYTPVALKSLKQLLDDMAAMIVNEPLAPVSLEAMLAKRFCLAGYTGLIRMAAAGIDMAAWDALGKVHETPLVKLLGANARPVQAYDSHSLDGVKLATERAVTAAELGFRAVKTKIGYPALDQDLAVVRSIRQAVGDDFGIMVDYNQSLDVPAAIKRSQALQQEGVTWIEEPTLQHDYEGHQRIQSKLNVPVQMGENWLGPEEMFKALSIGACRLAMPDAMKIGGVTGWIRASALAQQFGIPMSSHLFQEISAHLLAATPTAHWLERLDLAGSVIEPTLTFEGGNAVIPDLPGVGIIWREKEIGKYLV", "values": [{"measurement": "Km", "setting": "[1]", "result": 2020, "unit": "µM"}, {"measurement": "Km", "setting": "[2]", "result": 440, "unit": "µM"}, {"measurement": "Km", "setting": "[3]", "result": 950, "unit": "µM"}]}
